# Reference: article PMC5484684, “Intracellular targeting of annexin A2 inhibits tumor cell adhesion, migration, and in vivo grafting” (Scientific Reports, 2017)
# Ends that are not written are not given here.
# B1: LGRFYAASG-displaying iPhage (peptide)
# peptide: LGRFYAASG
# modifications: also: phage-displayed
# notes: peptide selected from the X4YX4 iPhage random peptide library in KS1767 cells; the alanine variants were cloned into the fUSE5 vector; source: recovered and amplified by E. coli infection, and purified
# Legend:
# [1] = molecular target: T1, human recombinant annexin A2 (human, UniProt P07355 1-339); assay: phage binding assay; recombinant proteins in 96-well plates; iPhage input 10^9 TU/well; bound phage particles quantified by bacterial infection; TU normalised on an insertless iPhage; conditions: both partners purified
# T1 construct: annexin A2, human, recombinant; also called ANXA2; source: bought: Amprox
# [2] = molecular target: T2, GST-fused recombinant annexin A2 (human, UniProt P07355 1-339); assay: as above; conditions: both partners purified
# T2 construct: May be the same protein as the annexin A2 bought from Amprox
# T2 sequence (P07355 whole entry, the tested form may be a part): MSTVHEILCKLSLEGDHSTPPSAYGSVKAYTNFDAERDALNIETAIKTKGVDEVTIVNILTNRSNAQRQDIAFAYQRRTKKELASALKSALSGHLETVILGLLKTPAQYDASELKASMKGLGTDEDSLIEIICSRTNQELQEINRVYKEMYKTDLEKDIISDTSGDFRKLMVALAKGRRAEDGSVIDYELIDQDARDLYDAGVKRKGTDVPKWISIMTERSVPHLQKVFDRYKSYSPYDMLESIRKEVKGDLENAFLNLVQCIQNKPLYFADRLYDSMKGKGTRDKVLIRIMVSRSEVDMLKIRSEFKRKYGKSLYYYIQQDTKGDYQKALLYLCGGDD
# T1 sequence (P07355 whole entry): as the sequence (P07355 whole entry, the tested form may be a part) above
binder,measurement,setting,value
B1,binding result,[1],binds
same,binding result,[2],binds
